# Measured values taken from patent US20140271457A1 (AbbVie / Abbott, published 2014).
# Target: Recombinant Human IL-13 (human, UniProt P35225 35-146, limits assumed)
# Experiment: Biacore SPR
# Outline: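 Antibodies or DVD-Ig captured on anti-mouse IgG (Fcγ) CM5 surface, SPR at 25 °C in HBS-EP+. Antigen at 0.8–100 nM, 50 μl/min; association 5 min, dissociation 10 min. kon and koff came from a global 1:1 fit with local Rmax.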
# Chain of Recombinant Human IL-13 (P35225 35-146 limits assumed): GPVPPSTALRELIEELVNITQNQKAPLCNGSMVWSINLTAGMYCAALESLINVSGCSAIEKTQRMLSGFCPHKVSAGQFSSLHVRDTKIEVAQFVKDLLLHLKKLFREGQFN
Kd,koff,kon,Binder
0.12 nM,7.3e-06 s⁻¹,62000 M⁻¹ s⁻¹,"DVD3144 (bispecific antibody, IgG1, DVD-Ig; wt hIgG1 + kappa constants) VH: EVQLVESGGGLVQPGGSLRLSCAASGFTFSNYGVTWVRQAPGKGLEWVSMIWADGSTHYASSVKGRFTISRDNSKNTLYLQMNSLRAEDTAVYYCAREWQHGPVAYWGQGTLVTVSSASTKGPEVQLVQSGAEVKKPGASVKVSCKASGYTFTSYWMHWVRQAPGQGLEWIGNINPKGGSNIYNEKFQGRVTMTRDTSISTAYMELSRLRSDDTAVYYCARLDYFGDSFDLWGQGTTVTVSS VL: DIQMTQSPSSLSASVGDRVTITCRASQLVSSAVAWYQQKPGKAPKLLIYWASARHTGVPSRFSGSGSGTDFTLTISSLQPEDFATYYCQQHYKTPFTFGQGTKLEIKRTVAAPDIQMTQSPSSLSASVGDRVTITCRASQGIRNYLNWYQQKPGKAPKLLIYYASNLEVGVPSRFSGSGSGTDYTLTISSLQPEDFATYYCQQDNRFPYTFGGGTKVEIKR"
0.24 nM,4.6e-05 s⁻¹,190000 M⁻¹ s⁻¹,"DVD3146 (bispecific antibody, IgG1, DVD-Ig; wt hIgG1 + kappa constants) VH: EVQLVESGGGLVQPGGSLRLSCAASGFTFSNYGVTWVRQAPGKGLEWVSMIWADGSTHYASSVKGRFTISRDNSKNTLYLQMNSLRAEDTAVYYCAREWQHGPVAYWGQGTLVTVSSASTKGPEVQLVQSGAEVKKPGASVKVSCKASGYTFTSYWMHWVRQAPGQGLEWIGNINPKGGSNIYNEKFQGRVTMTRDTSISTAYMELSRLRSDDTAVYYCARLDYFGDSFDLWGQGTTVTVSS VL: DIQMTQSPSSLSASVGDRVTITCRASQLVSSAVAWYQQKPGKAPKLLIYWASARHTGVPSRFSGSGSGTDFTLTISSLQPEDFATYYCQQHYKTPFTFGQGTKLEIKRTVAAPSVFIFPPDIQMTQSPSSLSASVGDRVTITCRASQGIRNYLNWYQQKPGKAPKLLIYYASNLEVGVPSRFSGSGSGTDYTLTISSLQPEDFATYYCQQDNRFPYTFGGGTKVEIKR"
0.34 nM,5.4e-05 s⁻¹,160000 M⁻¹ s⁻¹,"DVD3156 (bispecific antibody, IgG1, DVD-Ig; wt hIgG1 + kappa constants) VH: EVQLVESGGGLVQPGGSLRLSCAASGFTFSNYGVEWVRQAPGKGLEWVSGIWADGSTHYADTVKSRFTISRDNSKNTLYLQMNSLRAEDTAVYYCAREWQHGPVAYWGQGTLVTVSSASTKGPEVQLVQSGAEVKKPGASVKVSCKASGYTFTSYWMHWVRQAPGQGLEWIGNINPKGGSNIYNEKFQGRVTMTRDTSISTAYMELSRLRSDDTAVYYCARLDYFGDSFDLWGQGTTVTVSS VL: DIQMTQSPSSLSASVGDRVTITCKASQLVSSAVAWYQQKPGKAPKLLIYWASTLHTGVPSRFSGSGSGTDFTLTISSLQPEDFATYYCQQHYRTPFTFGQGTKLEIKRTVAAPSVFIFPPDIQMTQSPSSLSASVGDRVTITCRASQGIRNYLNWYQQKPGKAPKLLIYYASNLEVGVPSRFSGSGSGTDYTLTISSLQPEDFATYYCQQDNRFPYTFGGGTKVEIKR"
0.58 nM,3e-05 s⁻¹,53000 M⁻¹ s⁻¹,"DVD3154 (bispecific antibody, IgG1, DVD-Ig; wt hIgG1 + kappa constants) VH: EVQLVESGGGLVQPGGSLRLSCAASGFTFSNYGVEWVRQAPGKGLEWVSGIWADGSTHYADTVKSRFTISRDNSKNTLYLQMNSLRAEDTAVYYCAREWQHGPVAYWGQGTLVTVSSASTKGPEVQLVQSGAEVKKPGASVKVSCKASGYTFTSYWMHWVRQAPGQGLEWIGNINPKGGSNIYNEKFQGRVTMTRDTSISTAYMELSRLRSDDTAVYYCARLDYFGDSFDLWGQGTTVTVSS VL: DIQMTQSPSSLSASVGDRVTITCKASQLVSSAVAWYQQKPGKAPKLLIYWASTLHTGVPSRFSGSGSGTDFTLTISSLQPEDFATYYCQQHYRTPFTFGQGTKLEIKRTVAAPDIQMTQSPSSLSASVGDRVTITCRASQGIRNYLNWYQQKPGKAPKLLIYYASNLEVGVPSRFSGSGSGTDYTLTISSLQPEDFATYYCQQDNRFPYTFGGGTKVEIKR"
